Earlier results as cited in article PMC4632993.

Target: ubiquitin (Homo sapiens) (UniProt P0CG47)

Sequence of MDA-9/Syntenin (O00560 2-298): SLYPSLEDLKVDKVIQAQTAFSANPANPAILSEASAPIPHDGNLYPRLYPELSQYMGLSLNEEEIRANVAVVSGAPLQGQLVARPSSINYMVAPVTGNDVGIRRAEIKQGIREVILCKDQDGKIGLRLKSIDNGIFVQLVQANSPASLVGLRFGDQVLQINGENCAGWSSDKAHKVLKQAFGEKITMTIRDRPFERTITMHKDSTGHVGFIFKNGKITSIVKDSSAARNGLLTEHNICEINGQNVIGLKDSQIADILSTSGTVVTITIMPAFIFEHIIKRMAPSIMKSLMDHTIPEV

- Kd: 27.3 µM
Substance: MDA-9/Syntenin (from UniProt O00560)
